The values that follow come from US20150023989A1, “NEW ANTIBODY DRUG CONJUGATES (ADCS) AND THE USE THEREOF” (SEATTLE GENETICS, INC., priority 2011, published 2015).

What all share (test): ELISA cross-reactivity of M048-D01 Fab
What all share (settings): Fab 1 μg/ml, TRAIL-Fc wells as background
In general terms: An ELISA detects its analyte on a solid surface through an enzyme-linked reagent.

Experiment [1] concerns hFGFR1β-Fc (IIIb). It counts as binding, Human. How it is done: (§1) The cross-reactivity of the human antibodies M048-D01-hIgG1 and M048-D01-hIgG1-b of the present application was determined using the parental Fab fragment M048-D01 (comprising Vh: SEQ ID NO: 21 and Vl: SEQ ID NO: 22).
(§2) All of the variants took the form of Fc fusion proteins in carrier-free preparations. The proteins were biotinylated according to manufacturer instructions, using a 2-fold molar excess of biotin-LC-NHS (Pierce; Cat. No. 21347) and desalted using Zeba desalting columns (Pierce; Cat. No. 89889). For the ELISA, 96-well plates pretreated with streptavidin (Pierce, 15500) were loaded overnight at 4° C. with 1 μg/ml biotinylated protein. Wells which had been loaded with biotinylated TRAIL-Fc served as a reference. The next day the plates were washed 3× with PBST (1×PBS admixed with 0.05% Tween 20 (Sigma, P7949)), treated with blocking buffer (PBST admixed with 3% BSA (Sigma A4503)), and again washed three times with PBST. 100 μl of the purified Fab (1 μg/ml) were added, and incubation was carried out at room temperature for 1 hour. […] The colour reaction was monitored at 450 nm in a plate reader (Tecan). The signal strengths of the wells containing TRAIL-Fc were used as background values, and the signal-to-background ratios were calculated as summarized in Table 3.

Experiment [2] deals with hFGFR2β-Fc (IIIc). It counts as binding, Human. The protocol: as §1, §2
Experiment [3] deals with T1, hFGFR3-Fc (IIIb) (Homo sapiens, UniProt P22607).
T1 construct: purchased RnD Systems 1264-FR
T1 sequence (P22607 23-808 isoform P22607-2 limits assumed): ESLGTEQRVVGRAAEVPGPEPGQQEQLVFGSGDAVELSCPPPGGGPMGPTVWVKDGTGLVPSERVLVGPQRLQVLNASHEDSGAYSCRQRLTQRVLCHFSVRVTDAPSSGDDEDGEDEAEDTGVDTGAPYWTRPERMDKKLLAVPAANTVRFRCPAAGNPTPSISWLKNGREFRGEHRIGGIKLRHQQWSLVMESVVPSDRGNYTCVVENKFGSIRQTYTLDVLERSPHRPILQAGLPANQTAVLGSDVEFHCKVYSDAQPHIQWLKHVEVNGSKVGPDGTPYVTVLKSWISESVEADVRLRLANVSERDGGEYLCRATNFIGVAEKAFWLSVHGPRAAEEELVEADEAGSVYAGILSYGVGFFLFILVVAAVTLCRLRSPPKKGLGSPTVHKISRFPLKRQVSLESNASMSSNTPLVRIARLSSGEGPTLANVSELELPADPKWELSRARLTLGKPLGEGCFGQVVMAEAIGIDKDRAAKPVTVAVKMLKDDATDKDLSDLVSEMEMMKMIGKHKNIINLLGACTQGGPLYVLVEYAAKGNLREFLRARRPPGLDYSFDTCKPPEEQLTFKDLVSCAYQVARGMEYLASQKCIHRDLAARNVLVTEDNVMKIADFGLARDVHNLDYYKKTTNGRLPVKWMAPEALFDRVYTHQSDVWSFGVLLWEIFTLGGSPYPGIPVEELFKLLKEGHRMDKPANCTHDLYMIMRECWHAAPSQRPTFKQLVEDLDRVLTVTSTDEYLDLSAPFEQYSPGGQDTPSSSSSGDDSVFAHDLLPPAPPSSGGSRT
It counts as binding. How it is done: as §1
(§3) All of the variants took the form of Fc fusion proteins in carrier-free preparations. The proteins were biotinylated according to manufacturer instructions, using a 2-fold molar excess of biotin-LC-NHS (Pierce; Cat. No. 21347) and desalted using Zeba desalting columns (Pierce; Cat. No. 89889). For the ELISA, 96-well plates pretreated with streptavidin (Pierce, 15500) were loaded overnight at 4° C. with 1 μg/ml biotinylated protein. Wells which had been loaded with biotinylated TRAIL-Fc served as a reference. The next day the plates were washed 3× with PBST (1×PBS admixed with 0.05% Tween 20 (Sigma, P7949)), treated with blocking buffer (PBST admixed with 3% BSA (Sigma A4503)), and again washed three times with PBST. 100 μl of the purified Fab (1 μg/ml) were added, and incubation was carried out at room temperature for 1 hour. After threefold washing with PBST, an HRP-coupled anti-hIgG (Fab-specific) (diluted 1:2500, Sigma, A0293) was added, and incubation took place at room temperature for 1 hour. The colour reaction was activated by addition of 50 μl of TMB (Invitrogen, 2023) and halted after 5-15 minutes by addition of 50 μl of H2SO4 (Merck, 1120801000). The colour reaction was monitored at 450 nm in a plate reader (Tecan). The signal strengths of the wells containing TRAIL-Fc were used as background values, and the signal-to-background ratios were calculated as summarized in Table 3.

For experiment [4], the target named is T2, hFGFR2β-Fc (IIIb) (Homo sapiens, UniProt P21802).
T2 construct: purchased RnD Systems 665-FR
T2 sequence (P21802 22-680 isoform P21802-22 limits assumed): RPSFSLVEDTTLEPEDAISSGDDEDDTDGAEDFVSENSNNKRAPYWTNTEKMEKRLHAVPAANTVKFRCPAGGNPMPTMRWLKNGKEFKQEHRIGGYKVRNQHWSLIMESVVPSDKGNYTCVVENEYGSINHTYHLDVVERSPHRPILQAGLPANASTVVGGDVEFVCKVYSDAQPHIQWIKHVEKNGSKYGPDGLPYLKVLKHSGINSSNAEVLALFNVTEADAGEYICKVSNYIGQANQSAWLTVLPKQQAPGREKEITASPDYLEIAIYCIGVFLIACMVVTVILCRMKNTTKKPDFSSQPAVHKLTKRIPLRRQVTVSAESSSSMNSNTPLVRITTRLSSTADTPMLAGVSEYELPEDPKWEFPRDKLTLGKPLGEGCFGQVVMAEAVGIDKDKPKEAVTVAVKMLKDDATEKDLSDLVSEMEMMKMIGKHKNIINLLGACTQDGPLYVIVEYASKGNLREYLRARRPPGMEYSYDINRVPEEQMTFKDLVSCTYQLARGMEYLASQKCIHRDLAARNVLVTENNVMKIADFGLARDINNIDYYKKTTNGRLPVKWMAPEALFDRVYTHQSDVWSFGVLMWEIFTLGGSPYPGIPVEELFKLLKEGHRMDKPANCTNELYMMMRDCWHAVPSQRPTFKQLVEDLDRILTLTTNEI
It counts as binding. The protocol:
as §1, §3

Experiment [5] concerns the target T3, hFGFR4-Fc (Homo sapiens, UniProt P22455).
T3 construct: purchased RnD Systems 685-MF
The experiment is classed as binding. The protocol:
as §1, §3

For experiment [6], the target named is T4, mFGFR2β-Fc (IIIb) (Mus musculus, UniProt P21803).
T4 construct: purchased RnD Systems 708-MF
T4 sequence (P21803 22-707 isoform P21803-2 limits assumed): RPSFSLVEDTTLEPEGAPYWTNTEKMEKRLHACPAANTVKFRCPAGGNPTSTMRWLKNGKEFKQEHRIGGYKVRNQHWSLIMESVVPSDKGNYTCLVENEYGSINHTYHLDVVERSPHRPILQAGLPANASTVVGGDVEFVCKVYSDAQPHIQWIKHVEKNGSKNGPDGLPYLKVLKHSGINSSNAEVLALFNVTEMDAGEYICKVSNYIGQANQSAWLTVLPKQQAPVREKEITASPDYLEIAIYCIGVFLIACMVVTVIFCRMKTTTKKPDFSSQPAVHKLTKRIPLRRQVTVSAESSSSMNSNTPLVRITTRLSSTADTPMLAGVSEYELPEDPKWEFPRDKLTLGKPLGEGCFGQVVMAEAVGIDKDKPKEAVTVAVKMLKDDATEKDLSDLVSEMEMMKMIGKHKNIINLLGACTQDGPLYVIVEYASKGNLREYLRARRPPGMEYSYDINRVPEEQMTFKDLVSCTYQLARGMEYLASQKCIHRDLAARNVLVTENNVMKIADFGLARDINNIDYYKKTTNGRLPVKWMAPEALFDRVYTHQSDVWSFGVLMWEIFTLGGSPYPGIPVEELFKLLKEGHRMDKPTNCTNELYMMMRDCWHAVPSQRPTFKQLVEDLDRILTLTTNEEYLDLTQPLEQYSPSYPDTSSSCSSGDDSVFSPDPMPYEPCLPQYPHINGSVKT
It counts as binding. How it is done: as §1, §3

The target of experiment [7] is T5, hFGFR2α-Fc (IIIb) (Homo sapiens, UniProt P21802).
T5 construct: purchased RnD Systems 663-FR
T5 sequence (P21802 22-822 isoform P21802-3 limits assumed): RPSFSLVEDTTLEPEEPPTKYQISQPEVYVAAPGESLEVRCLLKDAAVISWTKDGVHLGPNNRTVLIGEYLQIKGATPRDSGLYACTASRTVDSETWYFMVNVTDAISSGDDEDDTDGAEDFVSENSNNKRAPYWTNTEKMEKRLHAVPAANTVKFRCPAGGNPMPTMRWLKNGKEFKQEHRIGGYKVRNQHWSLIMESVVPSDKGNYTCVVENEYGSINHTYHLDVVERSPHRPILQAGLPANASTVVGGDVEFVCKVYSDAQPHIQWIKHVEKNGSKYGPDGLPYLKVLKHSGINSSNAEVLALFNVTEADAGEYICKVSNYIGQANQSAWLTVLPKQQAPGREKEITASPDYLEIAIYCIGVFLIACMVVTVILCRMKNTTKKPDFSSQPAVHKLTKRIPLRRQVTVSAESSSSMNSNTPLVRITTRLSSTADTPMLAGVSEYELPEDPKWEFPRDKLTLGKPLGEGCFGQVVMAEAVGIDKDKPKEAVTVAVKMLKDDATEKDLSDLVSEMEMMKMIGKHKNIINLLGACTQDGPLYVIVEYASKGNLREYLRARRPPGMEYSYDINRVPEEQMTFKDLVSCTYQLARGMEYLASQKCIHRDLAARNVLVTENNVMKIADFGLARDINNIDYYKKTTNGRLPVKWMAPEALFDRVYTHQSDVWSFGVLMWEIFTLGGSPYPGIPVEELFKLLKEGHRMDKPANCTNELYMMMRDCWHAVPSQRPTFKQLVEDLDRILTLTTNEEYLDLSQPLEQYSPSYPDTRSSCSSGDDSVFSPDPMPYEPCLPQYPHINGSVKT
The experiment is classed as binding. The protocol:
as §1, §3

The target of experiment [8] is T6, mFGFR3-Fc (IIIc) (Mus musculus, UniProt Q61851).
T6 construct: purchased RnD Systems 710-MF
T6 sequence (Q61851 21-369 limits assumed): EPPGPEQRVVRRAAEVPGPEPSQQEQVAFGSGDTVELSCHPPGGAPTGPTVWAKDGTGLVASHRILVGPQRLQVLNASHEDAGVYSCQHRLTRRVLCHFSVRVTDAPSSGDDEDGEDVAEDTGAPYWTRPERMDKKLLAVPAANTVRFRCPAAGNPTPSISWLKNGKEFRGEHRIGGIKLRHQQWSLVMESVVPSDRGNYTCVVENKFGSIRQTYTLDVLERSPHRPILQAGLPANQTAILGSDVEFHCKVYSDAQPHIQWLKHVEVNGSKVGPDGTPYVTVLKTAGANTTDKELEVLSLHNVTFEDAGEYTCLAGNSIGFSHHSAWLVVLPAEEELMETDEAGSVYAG
It counts as binding. The protocol: as §1, §3

Experiment [9] has as its target T7, hFGFR1β-Fc (IIIc) (Homo sapiens, UniProt P11362).
T7 construct: purchased RnD Systems 661-FR
The experiment is classed as binding. The protocol: as §1, §3

The target of experiment [10] is T8, hFGFR3-Fc (IIIc) (Homo sapiens, UniProt P22607).
T8 construct: purchased RnD Systems 766-FR
T8 sequence (P22607 23-375 limits assumed): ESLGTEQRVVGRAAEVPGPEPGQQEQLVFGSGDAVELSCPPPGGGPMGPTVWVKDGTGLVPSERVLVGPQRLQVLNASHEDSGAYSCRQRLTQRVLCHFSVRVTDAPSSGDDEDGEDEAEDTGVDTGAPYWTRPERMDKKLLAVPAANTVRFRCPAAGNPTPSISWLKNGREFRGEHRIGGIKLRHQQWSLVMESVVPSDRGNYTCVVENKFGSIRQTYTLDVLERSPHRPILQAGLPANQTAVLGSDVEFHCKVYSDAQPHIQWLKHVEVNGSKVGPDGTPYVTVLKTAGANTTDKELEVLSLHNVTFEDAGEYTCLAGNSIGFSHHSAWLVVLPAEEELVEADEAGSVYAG
It counts as binding. How it is done: as §1, §3

Experiment [11] relates to mFGFR2β-Fc (IIIc). It counts as binding, Mouse. How it is done: as §1, §2

T7 sequence (P11362 22-733 isoform P11362-3 limits assumed): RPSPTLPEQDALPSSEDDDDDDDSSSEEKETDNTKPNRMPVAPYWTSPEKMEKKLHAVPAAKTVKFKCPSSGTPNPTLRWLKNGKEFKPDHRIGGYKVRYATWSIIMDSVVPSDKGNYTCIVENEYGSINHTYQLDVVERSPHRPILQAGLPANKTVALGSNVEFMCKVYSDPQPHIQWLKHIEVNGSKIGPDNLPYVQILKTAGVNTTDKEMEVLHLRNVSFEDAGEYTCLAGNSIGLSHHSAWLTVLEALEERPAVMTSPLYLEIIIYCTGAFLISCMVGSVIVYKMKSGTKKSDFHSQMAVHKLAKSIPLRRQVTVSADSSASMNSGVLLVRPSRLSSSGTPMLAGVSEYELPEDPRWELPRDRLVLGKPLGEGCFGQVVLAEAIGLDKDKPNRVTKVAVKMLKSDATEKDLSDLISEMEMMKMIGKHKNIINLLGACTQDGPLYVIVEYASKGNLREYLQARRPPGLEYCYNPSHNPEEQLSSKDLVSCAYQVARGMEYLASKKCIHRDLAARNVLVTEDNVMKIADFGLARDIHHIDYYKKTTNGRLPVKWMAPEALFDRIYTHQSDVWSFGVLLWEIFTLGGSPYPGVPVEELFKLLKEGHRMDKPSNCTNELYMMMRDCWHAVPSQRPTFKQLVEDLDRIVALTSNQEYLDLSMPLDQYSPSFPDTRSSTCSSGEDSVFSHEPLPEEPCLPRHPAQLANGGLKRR

B1: M048-D01 (antibody, V domains shown)
VH: EVQLLESGGGLVQPGGSLRLSCAASGFTFSSYAMSWVRQAPGKGLEWVSAISGSGTSTYYADSVKGRFTISRDNSKNTLYLQMNSLRAEDTAVYYCARVRYNWNHGDWFDPWGQGTLVTVSS
VL: QSVLTQPPSASGTPGQRVTISCSGSSSNIGNNYVSWYQQLPGTAPKLLIYENYNRPAGVPDRFSGSKSGTSASLAISGLRSEDEADYYCSSWDDSLNYWVFGGGTKLTVL
In the case of B1, the “Signal-to-background ratio, hFGFR1β-Fc (IIIb)” value in [1] is 0 (0: <2). Moreover, in [2], the “Signal-to-background ratio, hFGFR2β-Fc (IIIc)” value was “+++ (+++: >5)”. Moreover, in experiment [3], the “Signal-to-background ratio, hFGFR3-Fc (IIIb)” value is recorded as 0 (0: <2). For the same molecule, in [4], the “Signal-to-background ratio, hFGFR2β-Fc (IIIb)” value is listed as “+++ (+++: >5)”. Besides, in experiment [5], the “Signal-to-background ratio, hFGFR4-Fc” value is 0 (0: <2). In addition, the “Signal-to-background ratio, mFGFR2β-Fc (IIIb)” value in experiment [6] is “+++ (+++: >5)”. Moreover, the “Signal-to-background ratio, hFGFR2α-Fc (IIIb)” value in experiment [7] is on record as “+++ (+++: >5)”. For the same molecule, in [8], the “Signal-to-background ratio, mFGFR3-Fc (IIIc)” value is recorded as 0 (0: <2). Also, in [9], the “Signal-to-background ratio, hFGFR1β-Fc (IIIc)” value is reported as 0 (0: <2). In addition, the “Signal-to-background ratio, hFGFR3-Fc (IIIc)” value in experiment [10] was 0 (0: <2). The “Signal-to-background ratio, mFGFR2β-Fc (IIIc)” value in [11] is listed as “+++ (+++: >5)”.
